# ± gives the uncertainty stated by the source.
# B1: FERM and PDZ domain-containing protein 4, residues 75 to 154; numbered along this chain, Q14CM0 (parent)
# chain: APRKVEMRRDPVLGFGFVAGSEKPVVVRSVTPGGPSEGKLIPGDQIVMINDEPVSAAPRERVIDLVRSCKESILLTVIQP
# Variants of: B1
# Experiment: abundance fitness (aPCA) (normalised: wild type 0, dead -1); higher = more abundant; growth selection in yeast, the domain comes from the species named
# Details: Homo sapiens
row,Variant,abundance fitness
1,G43E,-0.18 ± 0.027
2,E6N,-0.014 ± 0.043
3,E6F,0.043 ± 0.037
4,E6I,-0.006 ± 0.033
5,E6V,-0.091 ± 0.022
6,E6G,-0.144 ± 0.02
7,R28C,-0.136 ± 0.032
8,R28L,-0.036 ± 0.024
9,R28T,0.005 ± 0.029
10,R28P,-0.725 ± 0.052
11,R28Y,-0.137 ± 0.037
12,P80C,-0.157 ± 0.11
13,A19F,-0.016 ± 0.04
14,A19N,-0.286 ± 0.048
15,A19Q,-0.084 ± 0.033
16,V25N,-0.23 ± 0.046
17,V25E,-0.796 ± 0.047
18,V25F,-0.127 ± 0.035
19,K23W,-0.076 ± 0.028
20,K23M,-0.01 ± 0.032
21,P42Y,-0.276 ± 0.041
22,P42H,-0.155 ± 0.045
23,I49W,-0.779 ± 0.036
24,I49E,-0.894 ± 0.048

row,Variant,abundance fitness
1,E52F,-0.083 ± 0.035
2,E52R,-0.053 ± 0.02
3,V5H,-0.349 ± 0.041
4,V5T,-0.325 ± 0.032
5,V5K,-0.749 ± 0.059
6,V5Y,-0.107 ± 0.04
7,V62L,-0.199 ± 0.022
8,V62W,-0.4 ± 0.034
9,V62T,-0.25 ± 0.025
10,G38I,-0.651 ± 0.064
11,G38K,-0.105 ± 0.036
12,T76L,-0.163 ± 0.034
13,T76Q,-0.095 ± 0.039
14,S72V,-0.104 ± 0.023
15,S72Y,-0.129 ± 0.029
16,S72T,-0.011 ± 0.026
17,P24M,-0.53 ± 0.042
18,P24F,-0.686 ± 0.076
19,L13V,-0.003 ± 0.094
20,L13F,-0.046 ± 0.17
21,K70A,-0.1 ± 0.027
22,K70C,-0.115 ± 0.033
23,P53M,-0.015 ± 0.031
24,P53T,-0.043 ± 0.026

row,Variant,abundance fitness
1,P53A,-0.037 ± 0.028
2,E71A,-0.095 ± 0.029
3,E71D,0 ± 0.036
4,E71Y,-0.231 ± 0.035
5,V12K,0.004 ± 0.04
6,V12S,-0.006 ± 0.031
7,V12F,-0.089 ± 0.054
8,R9C,-0.19 ± 0.033
9,P2Y,-0.004 ± 0.05
10,R59L,0.007 ± 0.022
11,R59A,-0.028 ± 0.023
12,R59D,-0.385 ± 0.036
13,R59F,0.005 ± 0.035
14,R59N,-0.025 ± 0.038
15,S29N,-0.032 ± 0.041
16,I73E,-0.463 ± 0.037
17,I73N,-0.369 ± 0.052
18,I73C,-0.045 ± 0.039
19,I73Y,-0.755 ± 0.092
20,I73H,-0.793 ± 0.17
21,V77K,-0.523 ± 0.033
22,V77R,-0.728 ± 0.025
23,V77A,-0.259 ± 0.023
24,R8V,-0.038 ± 0.029

row,Variant,abundance fitness
1,R8Y,-0.059 ± 0.055
2,R8E,0.034 ± 0.038
3,G33P,-0.871 ± 0.055
4,G33A,-0.055 ± 0.025
5,G33F,-0.116 ± 0.046
6,P32D,-0.075 ± 0.032
7,P32G,-0.098 ± 0.028
8,E60D,-0.049 ± 0.032
9,E60Y,-0.178 ± 0.036
10,E60M,-0.048 ± 0.03
11,S68E,-0.007 ± 0.025
12,S68R,-0.048 ± 0.02
13,S68L,-0.092 ± 0.022
14,S21I,-0.234 ± 0.059
15,S21T,-0.12 ± 0.031
16,S21A,0.005 ± 0.025
17,S21D,-0.003 ± 0.036
18,V26C,-0.07 ± 0.033
19,V26M,-0.012 ± 0.032
20,M7R,-0.967 ± 0.032
21,M7S,-0.535 ± 0.027
22,M7C,-0.247 ± 0.032
23,P58T,-0.029 ± 0.027
24,P58F,-0.33 ± 0.039

row,Variant,abundance fitness
1,P58D,-0.061 ± 0.032
2,P58E,-0.06 ± 0.026
3,P58G,-0.014 ± 0.02
4,E37V,-0.057 ± 0.023
5,E37F,-0.103 ± 0.038
6,V47K,-0.114 ± 0.042
7,V47N,-0.175 ± 0.042
8,D51H,0.01 ± 0.043
9,D51C,-0.135 ± 0.034
10,D51E,-0.016 ± 0.028
11,A57C,-0.005 ± 0.03
12,L40M,-0.19 ± 0.029
13,L40S,-0.87 ± 0.037
14,L40H,-1.07 ± 0.12
15,L40E,-0.989 ± 0.054
16,L40V,-0.156 ± 0.022
17,L40T,-0.846 ± 0.055
18,E22I,-0.336 ± 0.05
19,E22M,-0.22 ± 0.035
20,E22V,-0.066 ± 0.024
21,D10M,-0.207 ± 0.048
22,D10L,-0.369 ± 0.034
23,D10T,-0.38 ± 0.043
24,L65D,-0.462 ± 0.04

row,Variant,abundance fitness
1,F17E,-0.832 ± 0.043
2,F17V,-0.704 ± 0.031
3,N50C,-0.2 ± 0.035
4,N50K,-0.223 ± 0.032
5,V30P,-0.864 ± 0.055
6,V30R,-0.914 ± 0.031
7,V30I,-0.081 ± 0.035
8,R61D,-0.021 ± 0.035
9,R61G,-0.134 ± 0.029
10,R61K,-0.01 ± 0.032
11,R61P,-0.505 ± 0.04
12,R61W,-0.082 ± 0.032
13,G20K,-0.093 ± 0.032
14,G20T,-0.061 ± 0.029
15,V66T,-0.18 ± 0.026
16,V66C,-0.08 ± 0.028
17,V66P,-0.881 ± 0.048
18,V66G,-0.73 ± 0.027
19,V66E,-0.427 ± 0.029
20,Q79D,-0.002 ± 0.028
21,Q79G,0.03 ± 0.019
22,A1P,-0.734 ± 0.16
23,A1S,-0.207 ± 0.045
24,A1W,-0.569 ± 0.096

row,Variant,abundance fitness
1,V27T,-0.705 ± 0.053
2,V27I,-0.07 ± 0.039
3,V27M,-0.799 ± 0.063
4,V27W,-1.1 ± 0.068
5,V27K,-0.916 ± 0.073
6,V27P,-0.764 ± 0.058
7,V27S,-0.947 ± 0.053
8,V27C,-0.282 ± 0.038
9,V54F,-0.692 ± 0.044
10,G16S,-0.813 ± 0.039
11,K4N,-0.218 ± 0.28
12,I63D,-0.035 ± 0.044
13,I63L,0.009 ± 0.03
14,Q45R,-0.026 ± 0.022
15,L74I,0.145 ± 0.096
16,K39E,-0.135 ± 0.027
17,K39V,-0.06 ± 0.022
18,F15S,-0.777 ± 0.035
19,F15I,-0.702 ± 0.087
20,F15Q,-0.776 ± 0.048
21,L75T,-0.404 ± 0.063
22,L75C,-0.257 ± 0.052
23,R3L,-0.238 ± 0.024

# Reference: the Human Domainome abundance scans (Beltran et al. 2025)
